Results reported in the supplement of paper PMC10567573.
± gives the standard deviation.

Assay: protein stability index of a GFP-peptide fusion (GPS, HEK-293T) (PSI 1-6); higher = more stable
[1] = treatment: DMSO, c terminus: a fixed tail appended
[2] = treatment: MLN4924 1 uM, 8 h, c terminus: a fixed tail appended
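Note: 24-mer peptide tiles fused after GFP, lentivirally expressed, FACS-sorted into six equal bins by GFP/DsRed ratio, decoded by Illumina sequencing, PSI is the read-weighted mean bin number.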

Row | Sequence | protein stability index [1] | protein stability index [2] | protein stability index (treatment: DMSO, c terminus: native) | protein stability index (treatment: MLN4924 1 uM, 8 h, c terminus: native)
1 | MTDGILGKAATMEIPIHGNGEARQ [ARFIP2] | 4.58 ± 0.16 | 4.57 ± 0.13 | – | –
2 | GQVTPRGLRLRLPRRESLLRGLCR [C6orf223] | 3.24 ± 0.33 | 3.23 ± 0.34 | – | –
3 | TYKLKCKALQEENRDLRKASVTIQ [CCDC6] | 3.64 ± 0.3 | 3.7 ± 0.21 | – | –
4 | IWEQRSATVVMMTKLEERSRVKCD [PTPRD] | 3.29 ± 0.27 | 3.26 ± 0.41 | – | –
5 | DLENRCQSLTEDLEFRKSMYEEEI [LMNB1] | 4.91 ± 0.056 | 4.76 ± 0.13 | – | –
6 | VKEELSQKFDTLYAILDEKKSELL [TRIM63] | 3.6 ± 0.41 | 3.58 ± 0.17 | – | –
7 | NLYVFGGYNPDYDESGGPDNEDYP [KLHDC10] | 3.9 ± 0.28 | 4.09 ± 0.22 | – | –
8 | ISKKFGDMSYSIRHSISMPAMRNS [TPD52L1] | 2.51 ± 0.41 | 2.65 ± 0.52 | – | –
9 | PEKRTQYFDPLRNEYFFDRNRPSF [KCNA4] | 2.74 ± 0.25 | 3.03 ± 0.13 | – | –
10 | AATKQEGMEGLLGTLVQLLGSDDI [CTNNB1] | 2.63 ± 0.23 | 2.71 ± 0.58 | – | –
11 | GGYLTELEDGFYLTAFICFLVFIL [MFSD9] | 1.98 ± 0.22 | 2.14 ± 0.34 | – | –
12 | VLERAACLRRCKRTLPAFQVPYPP [P3H4] | 2.16 ± 0.29 | 2.16 ± 0.19 | – | –
13 | EDSCAELGESKEHMESRMVTETEE [SDE2] | 5.7 ± 0.18 | 5.63 ± 0.3 | – | –
14 | YDCGEDFYRSTAPSEDIWKKFELV [MYCL] | 2.96 ± 0.19 | 3.33 ± 0.22 | – | –
15 | ADYSAALDPAYTTLEFENVQVLTM [HNF4A] | 2.75 ± 0.25 | 2.39 ± 0.32 | – | –
16 | LEKGADVNRKSVKGNTALHDCAES [FEM1C] | 5.18 ± 0.29 | 5.38 ± 0.28 | – | –
17 | AVPHPPPSTPIKLEEGDGCAREYL [ADD1] | 4.16 ± 0.35 | 4.42 ± 0.23 | – | –
18 | MDHPSREKDERQRTTKPMAQRSAH [CSNK1G1] | 5.34 ± 0.22 | 5.09 ± 0.57 | – | –
19 | HFDVLPTEFTLGDDKHYGGFTNKQ [PTPRD] | 4.48 ± 0.16 | 4.47 ± 0.25 | – | –
20 | TFSMPSDSHVSSCSEDWVGYQRKC [CD69] | 3.64 ± 0.23 | 3.51 ± 0.23 | – | –
21 | QDLCGVSTCDTLGMADVGTVCDPA [ADAMTS4] | 5.07 ± 0.25 | 5.25 ± 0.26 | – | –
22 | RYSTNLSNHVDDFTTFRGTELSFL [EDNRA] | 2.58 ± 0.17 | 2.54 ± 0.21 | – | –
23 | ISSTSTKRTYWPDLDAKIREALVL [PLD5] | 2.38 ± 0.39 | 2.43 ± 0.49 | – | –

Row | Sequence | protein stability index [1] | protein stability index [2] | protein stability index (treatment: DMSO, c terminus: native) | protein stability index (treatment: MLN4924 1 uM, 8 h, c terminus: native)
24 | SIVAVGFHIFRTLEVNRLMGKLLQ [PKD2L1] | 3.03 ± 0.56 | 2.55 ± 0.5 | – | –
25 | MLGRLGYLNHVRAASPQDLAGGYT [MNAT1] | 2.61 ± 0.14 | 2.59 ± 0.37 | – | –
26 | AEGDSEGLSQGLVDREKGLSAEPG [CHGA] | 5.49 ± 0.23 | 5.49 ± 0.4 | – | –
27 | DLSGLPLQSSKNSYSFQNPSSFDP [RNF180] | 3.75 ± 0.065 | 3.78 ± 0.074 | – | –
28 | AQTLHHKSCYNGRFQLLYVACGMV [DNAAF3] | 2.94 ± 0.63 | 2.39 ± 0.72 | – | –
29 | LCPCLRSGIGSSQALGPSPPLFG [MYCL] | – | – | 2.54 ± 0.84 | 2.11 ± 0.26
30 | KSCYNGRFQLLYVACGMVHLLIPE [DNAAF3] | 3.37 ± 0.63 | 2.77 ± 0.36 | – | –
31 | ITTKIFWGGKAETERGLSRKHIIE [KCNAB2] | 2.65 ± 0.29 | 2.89 ± 0.33 | – | –
32 | AEVWVSGTIFIRNVLLFKKQNPGK [RETREG3] | 2.68 ± 0.54 | 2.49 ± 0.35 | – | –
33 | GPAHGPAQEEPWEKKESLGAAQEA [ZNF232] | 5.6 ± 0.22 | 5.49 ± 0.16 | – | –
34 | EESILERVQQHIESKLLGSNSSRM [MLH1] | 3.96 ± 0.15 | 3.92 ± 0.11 | – | –
35 | NGLEDIDRILERIEDSTGLNRPGP [TCF25] | 4.48 ± 0.21 | 4.75 ± 0.21 | – | –
36 | HEGEDQFLSLEASTETLVHVSDED [DLC1] | 5.61 ± 0.17 | 5.58 ± 0.32 | – | –
37 | HLGCMHYTVRAPVGVAGLISPWNL [ALDH8A1] | 2.48 ± 0.97 | 2.31 ± 0.64 | – | –
38 | VYVSNMTDKLVTPGKYFSAAEYHA [IQUB] | 2.14 ± 0.47 | 1.96 ± 0.15 | – | –
39 | AKTFHLVNPNGQKQQLVDAFLKLA [FAN1] | 2 ± 0.36 | 2.05 ± 0.17 | – | –
40 | IRKEMKLLEQAGSLKGSLSVEEQL [CRYL1] | 4.54 ± 0.53 | 4.372 ± 0.012 | – | –
41 | MTGRVCRGCGGTDIELDAARGDAV [BRF1] | 3.65 ± 0.12 | 3.77 ± 0.18 | – | –
42 | AGEDNDDLIDNLKEAQYIRTERVE [PCMTD1] | 5.08 ± 0.18 | 5.15 ± 0.26 | – | –
43 | SGGYWVGMSTIRPNPGFSMLDFLS [APMAP] | 2.1 ± 0.14 | 2.32 ± 0.97 | – | –
44 | NNIMKCRSRYDGHRIWMYNCHIGG [LOXL2] | 2.5 ± 0.69 | 2.33 ± 0.42 | – | –
45 | VSKGAESSRSSEESSSDSGSSDSE [BRD3] | 5.61 ± 0.24 | 5.6 ± 0.41 | – | –
46 | LKLMDRHKKDCAREKPFKCQECGK [ZNF75A] | 3.74 ± 0.37 | 3.95 ± 0.28 | – | –

Row | Sequence | protein stability index [1] | protein stability index [2] | protein stability index (treatment: DMSO, c terminus: native) | protein stability index (treatment: MLN4924 1 uM, 8 h, c terminus: native)
47 | ASAPTTPCQKSPNGVRVFPPAMPP [TRIM9] | 4.14 ± 0.25 | 4.2 ± 0.17 | – | –
48 | PLTEQEESSPSHDRSRTVSASSTG [SRPK2] | 5.25 ± 0.28 | 5.51 ± 0.23 | – | –
49 | GGNKKSDGVKESSESTNTTIEDED [CAMK2A] | 5.7 ± 0.087 | 5.53 ± 0.26 | – | –
50 | RQMAFDFARVKKGADGVMRTMAPE [SNAP91] | 3.47 ± 0.38 | 3.43 ± 0.16 | – | –
51 | ELQRTKQEVLSLRRENSTLDVECH [SASS6] | 4.02 ± 0.33 | 3.93 ± 0.2 | – | –
52 | TKGHPRAVSQPFRLSSSLQGSAVT [CDC14A] | 3.49 ± 0.41 | 3.54 ± 0.28 | – | –
53 | SDKDKAVGIFNTVINPMLNPIIYS [OR3A1] | 2.54 ± 0.3 | 2.71 ± 0.25 | – | –
54 | KAFYKRYRLTEHERAHKGEKPYGC [ZNF649] | 3.62 ± 0.93 | 3.16 ± 0.57 | – | –
55 | LCEKAKEILTKESNVQEVRCPVTV [PPP2CA] | 4.11 ± 0.32 | 4.44 ± 0.19 | – | –
56 | PAATMAVELHYEEGSPRNLGTPTS [C2CD2L] | 4.4 ± 0.17 | 4.52 ± 0.2 | – | –
57 | TYQVHDYLRSKLCSLYENDCIFDK [PPP2R2C] | 2.22 ± 0.26 | 2.32 ± 0.48 | – | –
58 | YLYFLFCPTLIYRETYPRTPYVRW [SOAT2] | 2.67 ± 0.76 | 2.58 ± 0.29 | – | –
59 | ETPNSLNTTVIPNGSMAMGTVPGQ [LYSMD4] | 4.43 ± 0.19 | 4.42 ± 0.23 | – | –
60 | ELKKAAYDIEVNTRRAQADLAYQL [FLOT1] | 3.2 ± 0.32 | 3.3 ± 0.32 | – | –
61 | VIQAVQKSEEGHPFKAYLDVDITL [RTN3] | 2.23 ± 0.59 | 2.18 ± 0.39 | – | –
62 | DSKIAFLMQLQDIQYLTENIWASQ [IQUB] | 2.9 ± 0.64 | 2.46 ± 0.62 | – | –
63 | RFHYDRNPGTDAVAQTSLEEFNVL [FATE1] | 3.74 ± 0.24 | 3.78 ± 0.11 | – | –
64 | AFVVYLETETLVTREAVTEILGIE [TSN] | 2.58 ± 0.6 | 2.52 ± 0.7 | – | –
65 | MLAEIFCQTGGVEDQEEWHAQVVE [ZBED1] | 3.05 ± 0.2 | 3.49 ± 0.4 | – | –
66 | EKPYKCPECGEIFAHSSNLLRHQR [ZNF263] | 3.07 ± 0.86 | 3.76 ± 0.93 | – | –
67 | MPIPEDLSTTSGGQQSSKSDRVVA [IKZF1] | 5.44 ± 0.16 | 5.39 ± 0.2 | – | –
68 | ILLDGSEYTCDVEKRSRGQVLFDK [EPB41L3] | 2.86 ± 0.55 | 2.94 ± 0.61 | – | –
69 | GFAMYYFTYDPWIGKLLYLEDFFV [SAT1] | 3.16 ± 0.17 | 3.03 ± 0.34 | – | –

Row | Sequence | protein stability index [1] | protein stability index [2] | protein stability index (treatment: DMSO, c terminus: native) | protein stability index (treatment: MLN4924 1 uM, 8 h, c terminus: native)
70 | AMAIINGSLYVFGGTTGYIYSTDL [KLHDC10] | 3.16 ± 0.2 | 2.74 ± 0.33 | – | –
71 | PYSKTLVLQTSEGKALQQYPSERE [TRIM9] | 4.63 ± 0.088 | 4.66 ± 0.21 | – | –
72 | FYGHSHHSHHGHPSHQSHSLPNRR [C10orf62] | 3.99 ± 0.29 | 4.21 ± 0.21 | – | –
73 | GMKIDLIDGKGRGVIATKQFSRGD [KMT5A] | 3.49 ± 0.15 | 4 ± 0.63 | – | –
74 | YGFYDECLRKYGNANVWKYFTDLF [PPP2CA] | 2.5 ± 0.21 | 2.67 ± 0.38 | – | –
75 | YLAHASDVLENAFAPLLDEQYDLA [GOLPH3] | 2.83 ± 0.21 | 3.12 ± 0.36 | – | –
76 | EGGEGEKEGEGEVGGEAVEVEEVE [TRIM55] | 5.66 ± 0.35 | 5.41 ± 0.29 | – | –
77 | NMCLVATGGADAYYEMGIHCWDVA [IMPA1] | 2.13 ± 0.23 | 2.3 ± 0.18 | – | –
78 | LPDELGSQLPQVLHVSLGQKLVAA [MOSPD3] | 3 ± 0.34 | 3.14 ± 0.089 | – | –
79 | VTLKTAVDGPDLEMLTGQERVALA [FKBP8] | 3.7 ± 0.23 | 3.81 ± 0.24 | – | –
80 | GSAVARAVCKATTHEVMGPKKKHL [SNAP91] | 4.58 ± 0.19 | 4.83 ± 0.17 | – | –
81 | TGANTKKPEDTAEDLTAKRKRMKM [FAM9B] | 5.4 ± 0.28 | 5.15 ± 0.51 | – | –
82 | EEDFDSEQLSVLASCLQELFKAHF [INTS3] | 2.24 ± 0.078 | 2.49 ± 0.29 | – | –
83 | DYEFRVVAVNNIGRGPPSEPVLTQ [PTPRD] | 3.08 ± 0.16 | 3.04 ± 0.47 | – | –
84 | FANLIKEFVIIDCRYPYEYEGGHI [CDC25A] | 2.98 ± 0.51 | 2.76 ± 1.1 | – | –
85 | SEVEELNMSLTALREKLLEAEQSL [TEKT4] | 3.52 ± 0.35 | 3.87 ± 0.2 | – | –
86 | AAKARDTGILIFAIGVGQVDFNTL [MATN2] | 2.58 ± 1.1 | 3.16 ± 1 | – | –
87 | VYIFATCLGLSYDGLLGDNQIMPK [MAGEA6] | 2.82 ± 0.52 | 2.44 ± 0.44 | – | –
88 | QLKEEMARHLREYQELLNVKMALD [PRPH] | 3.32 ± 0.22 | 3.5 ± 0.36 | – | –
89 | TSRRARASKKTAQPWVEVVLALRN [MFSD9] | 2.33 ± 0.12 | 2.58 ± 0.19 | – | –
